For the assay, the target named is catalytic subunit α of PKA (PKA-Cα) (human (endogenous in HCT116 and HCT-15), UniProt P17612 1-351). The experiment in a line: co-IP; immunoprecipitation with anti-PKA Cα (4782, Cell Signaling) and protein-G Sepharose from 2 mg HCT116 lysate, 2 h at 4 °C, IP lysis buffer (50 mM tris/HCl pH 7.4, 150 mM NaCl, 0,25% NP-40); cells mitotically arrested (2 µM dimethylenastron, 16 h) or asynchronous with DMSO, E2, BPA, DES or G-1 for 48 h; Western blot, Centrin-pS170 band normalised to precipitated PKA Cα. The note with it: partners not purified. Background: A western blot detects proteins with antibodies after separation by electrophoresis.

B1: Centrin-2 phosphorylated at serine 170 (Centrin-2-pS170) (natural protein, human (endogenous in HCT116 and HCT-15), UniProt P41208 1-172, looked up)
chain: MASNFKKANMASSSQRKRMSPKPELTEEQKQEIREAFDLFDADGTGTIDVKELKVAMRALGFEPKKEEIKKMISEIDKEGTGKMNFGDFLTVMTQKMSEKDTKEEILKAFKLFDDDETGKISFKNLKRVAKELGENLTDEELQEMIDEADRDGDGEVSEQEFLRIMKKTSLY
modifications: phosphoserine at 170
notes: Centrin-2, human, endogenous, the form phosphorylated at S170 as detected by the anti-Centrin-2-pS170 antibody (raised against Cys-LRIMKKT(pS)LY172); NM_004344.3 is printed for the Centrin wild-type expression vector, not for the endogenous protein of the co-IP; also called Centrin-pS170; phosphorylated Centrin-2; source: endogenous, HCT116 and HCT-15 lysates
Take B1: the “fold increase of co-precipitated Centrin-pS170 (normalised to PKA-Cα) with BPA, relative to DMSO” value turned out to be 1.8 fold; the “fold increase of co-precipitated Centrin-pS170 (normalised to PKA-Cα) with DES, relative to DMSO” value stood at 1.6 fold; the “fold increase of co-precipitated Centrin-pS170 (normalised to PKA-Cα) with E2, relative to DMSO” value is 1.4 fold.

For the origin of these results see publication PMC12673129, “A GPER-PKA-Centrin axis regulates centrosome numbers and centriole integrity in colon cancer cells” (Communications Biology, 2025).
